Assay results: IntAct's records for PubMed 16698552

B1: Eukaryotic translation initiation factor 4 gamma 1 (Homo sapiens), Q04637-8 (parent)
chain: MNKAPQSTGPPPAPSPGLPQPAFPPGQTAPVVFSTPQATQMNTPSQPRQHFYPSRAQPPSSAASRVQSAAPARPGPAAHVYPAGSQVMMIPSQISYPASQGAYYIPGQGRSTYVVPTQQYPVQPGAPGFYPGASPTEFGTYAGAYYPAQGVQQFPTGVAPTPVLMNQPPQIAPKRERKTIRIRDPNQGGKDITEEIMSGARTASTPTPPQTGGGLEPQANGETPQVAVIVRPDDRSQGAIIADRPGLPGPEHSPSESQPSSPSPTPSPSPVLEPGSEPNLAVLSIPGDTMTTIQMSVEESTPISRETGEPYRLSPEPTPLAEPILEVEVTLSKPVPESEFSSSPLQAPTPLASHTVEIHEPNGMVPSEDLEPEVESSPELAPPPACPSESPVPIAPTAQPEELLNGAPSPPAVDLSPVSEPEEQAKEVTASMAPPTIPSATPATAPSATSPAQEEEMEEEEEEEEGEAGEAGEAESEKGGEELLPPESTPIPANLSQNLEAAAATQVAVSVPKRRRKIKELNKKEAVGDLLDAFKEANPAVPEVENQPPAGSNPGPESEGSGVPPRPEEADETWDSKEDKIHNAENIQPGEQKYEYKSDQWKPLNLEEKKRYDREFLLGFQFIFASMQKPEGLPHISDVVLDKANKTPLRPLDPTRLQGINCGPDFTPSFANLGRTTLSTRGPPRGGPGGELPRGPQAGLGPRRSQQGPRKEPRKIIATVLMTEDIKLNKAEKAWKPSSKRTAADKDRGEEDADGSKTQDLFRRVRSILNKLTPQMFQQLMKQVTQLAIDTEERLKGVIDLIFEKAISEPNFSVAYANMCRCLMALKVPTTEKPTVTVNFRKLLLNRCQKEFEKDKDDDEVFEKKQKEMDEAATAEERGRLKEELEEARDIARRRSLGNIKFIGELFKLKMLTEAIMHDCVVKLLKNHDEESLECLCRLLTTIGKDLDFEKAKPRMDQYFNQMEKIIKEKKTSSRIRFMLQDVLDLRGSNWVPRRGDQGPKTIDQIHKEAEMEEHREHIKVQQLMAKGSDKRRGGPPGPPISRGLPLVDDGGWNTVPISKGSRPIDTSRLTKITKPGSIDSNNQLFAPGGRLSWGKGSSGGSGAKPSDAASEAARPATSTLNRFSALQQAVPTESTDNRRVVQRSSLSRERGEKAGDRGDRLERSERGGDRGDRLDRARTPATKRSFSKEVEERSRERPSQPEGLRKAASLTEDRDRGRDAVKREAALPPVSPLKAALSEEELEKKSKAIIEEYLHLNDMKEAVQCVQELASPSLLFIFVRHGVESTLERSAIAREHMGQLLHQLLCAGHLSTAQYYQGLYEILELAEDMEIDIPHVWLYLAELVTPILQEGGVPMGELFREITKPLRPLGKAASLLLEILGLLCKSMGPKKVGTLWREAGLSWKEFLPEGQDIGAFVAEQKVEYTLGEESEAPGQRALPSEELNRQLEKLLKEGSSNQRVFDWIEANLSEQQIVSNTLVRALMTAVCYSAIIFETPLRVDVAVLKARAKLLQKYLCDEQKELQALYALQALVVTLEQPPNLLRMFFDALYDEDVVKEDAFYSWESSKDPAEQQGKGVALKSVTAFFKWLREAEEESDHN

Variants of: B1
Settings: with if4g1_human EIF4G1, Q04637

effect of a mutation on the interaction | Variant
disrupting interaction | I1278A;F1279A;V1280A
